Laboratory results: PMC11947619, “Molecular mechanism of Mad2 conformational conversion promoted by the Mad2‐interaction motif of Cdc20” (Protein Science : A Publication of the Protein Society, 2025)

Legend:
O‐Mad2^R133A = biological target: T1, O‐Mad2^R133A (Homo sapiens, UniProt Q13257, R133A); experiment: Time-resolved NMR: O-Mad2 to C-Mad2 conversion of O-Mad2^R133A with MIM peptides; assay type: biochemical; conditions: 100 μM O-Mad2^R133A, 25°C
T1 construct: unable to collect equivalent data for full‐length O‐Mad2^R133A; His6-DoubleStrep-TEV (N); made in house
T1 sequence (Q13257 whole entry R133A): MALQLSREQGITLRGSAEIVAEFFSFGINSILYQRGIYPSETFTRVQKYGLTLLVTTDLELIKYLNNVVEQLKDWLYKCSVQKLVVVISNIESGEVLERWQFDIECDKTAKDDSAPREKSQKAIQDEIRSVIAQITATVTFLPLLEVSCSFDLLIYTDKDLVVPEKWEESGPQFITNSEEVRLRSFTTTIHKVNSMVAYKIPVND
Method: FIGURE 2 NMR fingerprinting of Mad2. (a) Structural orientations of Trp75 (on the αB helix) and Trp167 (on the “safety‐belt”) in Mad2 produce distinct indole NH resonances. […] NMR spectra for O‐Mad2^R133A and “empty” C‐Mad2^L13A/R133A and C‐Mad2^R133A:Cdc20^MIM‐111‐138 are from Fischer et al. ([2022]) (c) Mad2 conversion rates vary with different MIM peptides. Conversion was traced over 24 h at 25°C using the Trp75 and Trp167 side‐chain resonances as reporters. MIM peptides were added at two‐fold molar excess to Mad2 (100 μM). Each spectrum required 12 min of acquisition time, therefore the 15 min time‐points represent the earliest spectra in the time‐resolved series. The schematics show the conformation of Mad2 as indicated by the tryptophan side‐chain resonances. A black tick marks when conversion is considered complete. NMR data for O‐Mad2^R133A with and without Cdc20^MIM‐111‐138 shown are from Fischer et al. ([2022]). In the case of full‐length Cdc20, the MIM sequence is sequestered by an auto‐inhibitory intramolecular interaction within Cdc20 itself, which prevents it from being readily accessible for binding to C‐Mad2 (Piano et al., [2021]). Conversely, isolated MIM peptides lack this auto‐inhibitory mechanism, allowing them to bind directly to C‐Mad2 without obstruction.
To understand whether Mad2 conversion times are modulated by different C‐Mad2 ligands, we used time‐resolved NMR to determine the conversion time of 100 μM O‐Mad2^R133A at 25°C. The indole NH resonances of Trp75 and Trp167 were used as reporters (Figure 2b). […] In contrast, conversion took ~24 h in the absence of Cdc20^MIM‐111‐138 peptide (Fischer et al., [2022]) (Figures 2c and S4b). […] Other MIM peptides also accelerated the O‐Mad2 to C‐Mad2 conversion. […] In “empty” C‐Mad2, the β7/β8 hairpin is displaced to expose the β6 strand for pairing with the MIM peptide (Luo et al., [2004]) (Figure S3a).
Mad2 constructs were expressed in BL21 Star (DE3) cells (Thermo Fisher Scientific), co‐transformed with a pRARE plasmid (Merck). Uniformly labeled proteins were expressed in M9 minimal media (6 g/L Na2HPO4, 3 g/L KH2PO4, 0.5 g/L NaCl) supplemented with 1.7 g/L yeast nitrogen base without NH4Cl and amino acids (Sigma Y1251). 1 g/L ^15NH4Cl and 4 g/L glucose were supplemented for ^15N labeling. For ^13C/^15N double‐labeled samples, unlabeled glucose was replaced with 3 g/L ^13C‐glucose. Protein expression was induced with 0.4 mM IPTG at 16°C overnight. All samples were purified as previously described (Luo & Yu, [2005]; Mapelli et al., [2007]) and all O‐Mad2 variants were kept at 4°C during purification to prevent conversion to C‐Mad2. Prior to all NMR experiments, proteins were dialyzed into 20 mM HEPES, pH 7.0, 100 mM NaCl, 1 mM TCEP. ^13C/^15N‐labeled samples were used for backbone assignment, and all other experimental data were acquired on ^15N‐labeled samples. Proteins were kept on ice before NMR experiments to ensure all O‐Mad2 remained in the open state. For “bound” C‐Mad2, MIM peptides were added in 1:2 molar excess to ensure complete conversion.
All peptides were synthesized by Cambridge Research Biochemicals, UK. Peptides were dialyzed into 20 mM HEPES, pH 7.0, 100 mM NaCl, and 1 mM TCEP for NMR experiments. The sequences for the peptides used in this study are: Cdc20^MIM‐111‐138 ([…]), Cdc20^MIM‐123‐137 (FDVEEAKILRLSGKP), Cdc20^MIM‐123‐152 ([…]), Cdc20^MIM‐138‐152 (QNAPEGYQNRLKVLY), Mad1^MIM‐529‐550 ([…]), and MBP1^MIM (SWYSYPPPQRAV). […]

O‐Mad2 = conditions: NMR; ref Luo et al., [2004]; cited from earlier work
Method: To understand whether Mad2 conversion times are modulated by different C‐Mad2 ligands, we used time‐resolved NMR to determine the conversion time of 100 μM O‐Mad2^R133A at 25°C. The indole NH resonances of Trp75 and Trp167 were used as reporters (Figure 2b). […] In contrast, conversion took ~24 h in the absence of Cdc20^MIM‐111‐138 peptide (Fischer et al., [2022]) (Figures 2c and ...

[1] = cited from earlier work
Method: In contrast, conversion took ~24 h in the absence of Cdc20^MIM‐111‐138 peptide (Fischer et al., [2022]) (Figures 2c and ...

[2] = experimentally determined; ref Zhao et al., [2016]; cited from earlier work
Mad2^∆β7/β8 = conditions: ref Yang et al., [2008]; cited from earlier work
Source text: We reasoned that MIM binding to Mad2 is blocked until the β7/β8 hairpin is displaced (Figure 3c,d). To test this hypothesis, we generated a Mad2 variant with a deleted β7/β8 hairpin (Mad2^∆β7/β8: residues 1–165) (Figure 3e). Mad2^∆β7/β8 adopted a stable globular fold, and due to the absence of the C‐terminal residues, it was unable to adopt a closed conformation (Figure 3f). […] This is in agreement with a previous study that showe ...

C‐Mad2 = conditions: phage-display selected MIM peptide; ref Luo et al., [2002]; cited from earlier work
Mad2^LL/R133A = biological target: T2, Mad2^LL/R133A (human, UniProt Q13257 1-205, residues 109–117 (TAKDDSAPR) with GSG | R133A); experiment: time-resolved NMR (series of 1H,15N SOFAST-HMQC spectra, residue conversion rates); 200 μM Mad2 variant, 950 MHz, 25°C, 500 spectra of 5 min over 42 h; disappearance of O-Mad2 and appearance of C-Mad2:Cdc20^MIM backbone resonances; conditions: both partners purified
T2 construct: Mad2, human; Mad2^LL construct (residues 109-117 replaced by GSG) with Ala for Arg133; numbers count on wild-type Mad2; Tag is followed by a TEV site; also called O-Mad2^LL/R133A; source: E. coli BL21 Star (DE3) with pRARE, purified
T2 sequence (Q13257 other isoform, or with tags, fused parts or gaps with the stated changes): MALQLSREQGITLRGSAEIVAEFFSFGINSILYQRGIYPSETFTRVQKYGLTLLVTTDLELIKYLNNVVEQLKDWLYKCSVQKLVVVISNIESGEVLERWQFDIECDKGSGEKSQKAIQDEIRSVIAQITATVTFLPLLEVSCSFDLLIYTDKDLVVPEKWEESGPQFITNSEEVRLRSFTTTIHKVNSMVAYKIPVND

Mad2^R133A = biological target: T3, Mad2^R133A (human, UniProt Q13257 1-205, R133A); experiment: time-resolved NMR (series of 2D 1H,15N HSQC spectra); 100 μM 15N Mad2 variant, MIM peptide at two-fold molar excess, 25°C, 20 mM HEPES pH 7.0, 100 mM NaCl, 1 mM TCEP, 5% D2O; Trp75 and Trp167 indole NH resonances as reporters of the ligand-bound closed state; 12 min per spectrum, up to 24 h; conditions: both partners purified
T3 construct: Mad2, human, full-length, R133A; Tag is followed by a TEV site; 15N-labelled for NMR; Starts in the open state; also called O-Mad2^R133A; C-Mad2^R133A; source: E. coli BL21 Star (DE3) with pRARE, purified
T3 sequence (Q13257 whole entry R133A): as the sequence (Q13257 whole entry R133A) above

Mad2^L13A/R133A = biological target: T4, Mad2^L13A/R133A (human, UniProt Q13257 1-205, L13A | R133A); experiment: as above; conditions: both partners purified
T4 construct: Mad2, human, full-length, L13A and R133A; made from the Mad2^R133A mutant; Adopts the closed state without ligand; Tag is followed by a TEV site; also called “empty” C-Mad2; C-Mad2^L13A/R133A; source: E. coli BL21 Star (DE3) with pRARE, purified
T4 sequence (Q13257 whole entry L13A/R133A): as the sequence (Q13257 whole entry R133A) above, with L13A counted along it

Mad2^LL = biological target: T5, Mad2^LL (human, UniProt Q13257 1-205, residues 109–117 (TAKDDSAPR) with GSG); experiment: as above; conditions: both partners purified
T5 construct: Mad2, human; wild-type construct with residues 109-117 of the β5-αC loop replaced by GSG; Tag is followed by a TEV site; also called loop-less Mad2 mutant; O-Mad2^LL; source: E. coli BL21 Star (DE3) with pRARE, purified
T5 sequence (Q13257 other isoform, or with tags, fused parts or gaps with the stated changes): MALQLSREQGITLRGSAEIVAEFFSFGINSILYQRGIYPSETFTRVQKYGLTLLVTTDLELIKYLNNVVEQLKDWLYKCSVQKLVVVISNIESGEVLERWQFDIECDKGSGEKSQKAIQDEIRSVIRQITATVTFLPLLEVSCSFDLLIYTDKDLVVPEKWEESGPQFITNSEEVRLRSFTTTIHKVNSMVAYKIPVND

human wild-type Mad2 = biological target: T6, human wild-type Mad2 (human, UniProt Q13257 1-205); experiment: SEC; excess of Mad1^MIM peptide added to O-Mad2^WT, complex purified by size-exclusion chromatography; conditions: both partners purified
T6 construct: Mad2, human, wild type; limits follow from Mad2^Δβ7/β8 (residues 1-165), made from this construct by deleting residues 166-205; Tag is followed by a TEV site; 15N-labelled for NMR; Expressed and kept cold as the open state (O-Mad2); Construct described in Fischer et al. 2022; also called Mad2^WT; O-Mad2^WT; source: E. coli BL21 Star (DE3) with pRARE, purified
T6 sequence (Q13257 whole entry, the tested form may be a part): as the sequence (Q13257 whole entry R133A) above, with A133R counted along it

## FDVEEAKILRLSGKP [Cdc20^MIM‐123‐137, Cdc20^MIM spanning residues 123–137]
O‐Mad2^R133A; time-resolved NMR, compared with other Cdc20^MIM peptides
  Mad2 conversion rate/efficiency, in words: triggered Mad2 conversion at a similar rate as Cdc20^MIM‐111‐138

## Mad1 residues 540–551: Mad1 residues 540–551, earlier NMR study (Luo et al., [2004]) (TKVLHMSLNPTS; UniProt Q9Y6D9 540-551, looked up, fragment)
O‐Mad2
  effect on O-Mad2 to C-Mad2 conversion, in words: facilitate this conversion

## O‐Mad2: Mad2 in the open inactive state
[1]; in solution, ref Faesen et al., [2017], Lad et al., [2009], Luo et al., [2004], Simonetta et al.
  t1/2 of intrinsic O-Mad2 to C-Mad2 conversion, in words: multiple hours
[2]
  melting temperature: 69 °C

## O‐Mad2^R133A: dimerization‐deficient mutant Mad2^R133A in its open state
[1]; 100 μM, 25°C, absence of Cdc20^MIM-111-138 peptide, ref Fischer et al., [2022]
  spontaneous conversion time to "empty" C-Mad2: ~ 24 h

## SWYSYPPPQRAV [MBP1^MIM]
O‐Mad2^R133A; two-fold molar excess peptide, 20 mM HEPES pH 7.0, 100 mM NaCl, 1 mM TCEP, 5% D2O, Trp75/Trp167 indole NH reporters, 12 min per spectrum
  time to complete Mad2 conversion: ≤ 60 min
Mad2^∆β7/β8
  interaction with Mad2^∆β7/β8, in words: weak interaction
C‐Mad2
  C-Mad2 affinity, in words: enhanced C‐Mad2 affinity

B1: Cdc20^MIM-123-152 (peptide)
peptide: FDVEEAKILRLSGKPQNAPEGYQNRLKVLY
notes: also called MIM peptide; source: synthetic peptide (Cambridge Research Biochemicals)
Mad2^LL/R133A
  binding result: binds
Mad2^R133A
  binding result: binds

B2: Cdc20^MIM-111-138 (peptide)
peptide: EHQKAWALNLNGFDVEEAKILRLSGKPQ
notes: source: synthetic peptide (Cambridge Research Biochemicals)
Mad2^L13A/R133A
  binding result: binds
Mad2^LL
  binding result: binds

B3: Cdc20^MIM-123-137 (peptide)
peptide: FDVEEAKILRLSGKP
notes: as for B2
Mad2^R133A
  binding result: binds

B4: Mad1^MIM-529-550 (peptide)
peptide: RALQGDYDQSRTKVLHMSLNPT
notes: as for B2
Human wild-type Mad2
  binding result: binds
Mad2^R133A
  binding result: binds

B5: MBP1^MIM (peptide)
peptide: SWYSYPPPQRAV
notes: as for B2
Mad2^R133A
  binding result: binds
